Reference: publication PMC2522368 (Molecular cell, 2008)

Columns and labels:
talin-R4 (1654-1848) = talin-R4 (1654-1848) (UniProt P26039); assay: SPR
talin-R6-R8 (1984-2344) = talin-R6-R8 (1984-2344) (UniProt P26039); assay: SPR
talin-RM (1654-2344) = talin-RM (1654-2344) (UniProt P26039); assay: SPR
talin-H = talin-H (Mus musculus, UniProt P26039); assay: SPR, lipid immobilised on biotin chip, talin-H injected; type: binding; details: labelled compound; 10 mM Hepes, pH 7.4, 37 °C
[1] = biological target: PIPKIγ peptide (Mus musculus) (UniProt O70161); details: cited from earlier work
Sequence of PIPKIγ peptide (Mus musculus) (O70161 whole entry): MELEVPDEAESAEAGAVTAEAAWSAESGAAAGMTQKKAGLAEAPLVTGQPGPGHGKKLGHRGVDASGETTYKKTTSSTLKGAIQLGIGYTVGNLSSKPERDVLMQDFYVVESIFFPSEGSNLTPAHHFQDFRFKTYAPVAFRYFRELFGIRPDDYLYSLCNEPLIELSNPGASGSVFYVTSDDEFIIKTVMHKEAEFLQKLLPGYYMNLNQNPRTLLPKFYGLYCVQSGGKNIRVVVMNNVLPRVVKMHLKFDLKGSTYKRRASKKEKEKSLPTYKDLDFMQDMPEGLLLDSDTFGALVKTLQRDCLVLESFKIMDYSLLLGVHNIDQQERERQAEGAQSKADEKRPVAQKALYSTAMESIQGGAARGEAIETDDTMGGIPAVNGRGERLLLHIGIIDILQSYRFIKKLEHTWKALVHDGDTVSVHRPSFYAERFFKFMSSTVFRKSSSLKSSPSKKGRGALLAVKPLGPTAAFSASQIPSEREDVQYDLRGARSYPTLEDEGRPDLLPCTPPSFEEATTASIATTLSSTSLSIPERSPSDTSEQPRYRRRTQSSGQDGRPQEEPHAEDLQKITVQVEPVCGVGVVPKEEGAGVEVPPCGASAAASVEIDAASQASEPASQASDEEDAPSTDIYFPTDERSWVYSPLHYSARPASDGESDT

Sequence of talin-RM (1654-2344) (P26039 1654-2344): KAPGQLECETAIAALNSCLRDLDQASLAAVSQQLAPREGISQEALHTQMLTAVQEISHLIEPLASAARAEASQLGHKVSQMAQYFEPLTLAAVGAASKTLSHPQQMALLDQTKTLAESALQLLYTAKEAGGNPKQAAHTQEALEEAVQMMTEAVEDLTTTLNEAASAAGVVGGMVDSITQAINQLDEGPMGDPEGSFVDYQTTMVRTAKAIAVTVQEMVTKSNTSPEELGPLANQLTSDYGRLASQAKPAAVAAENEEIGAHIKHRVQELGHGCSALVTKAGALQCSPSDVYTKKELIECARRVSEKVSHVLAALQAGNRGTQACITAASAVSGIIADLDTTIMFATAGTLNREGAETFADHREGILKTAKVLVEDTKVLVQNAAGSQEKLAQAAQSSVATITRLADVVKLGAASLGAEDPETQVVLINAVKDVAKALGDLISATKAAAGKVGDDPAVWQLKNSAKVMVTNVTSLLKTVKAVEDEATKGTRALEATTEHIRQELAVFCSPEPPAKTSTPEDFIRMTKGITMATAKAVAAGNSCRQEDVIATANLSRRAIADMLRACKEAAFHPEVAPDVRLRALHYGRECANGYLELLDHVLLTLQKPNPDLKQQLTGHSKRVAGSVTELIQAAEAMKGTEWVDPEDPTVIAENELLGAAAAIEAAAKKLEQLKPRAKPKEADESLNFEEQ
Sequence of talin-PTB PTB (P26039 309-405): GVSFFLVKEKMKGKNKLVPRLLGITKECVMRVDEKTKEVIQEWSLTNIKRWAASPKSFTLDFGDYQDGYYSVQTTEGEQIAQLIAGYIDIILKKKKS
Sequence of talin-R6-R8 (1984-2344) (P26039 1984-2344): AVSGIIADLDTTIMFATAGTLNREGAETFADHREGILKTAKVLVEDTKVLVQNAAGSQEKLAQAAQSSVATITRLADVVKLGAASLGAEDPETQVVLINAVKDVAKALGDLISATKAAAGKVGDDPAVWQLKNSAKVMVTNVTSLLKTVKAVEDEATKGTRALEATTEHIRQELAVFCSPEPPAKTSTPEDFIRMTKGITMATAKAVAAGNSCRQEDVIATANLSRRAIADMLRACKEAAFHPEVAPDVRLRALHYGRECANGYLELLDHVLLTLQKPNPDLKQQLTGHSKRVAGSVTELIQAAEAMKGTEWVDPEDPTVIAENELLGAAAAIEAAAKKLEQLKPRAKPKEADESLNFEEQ
Sequence of talin-H (P26039 1-433): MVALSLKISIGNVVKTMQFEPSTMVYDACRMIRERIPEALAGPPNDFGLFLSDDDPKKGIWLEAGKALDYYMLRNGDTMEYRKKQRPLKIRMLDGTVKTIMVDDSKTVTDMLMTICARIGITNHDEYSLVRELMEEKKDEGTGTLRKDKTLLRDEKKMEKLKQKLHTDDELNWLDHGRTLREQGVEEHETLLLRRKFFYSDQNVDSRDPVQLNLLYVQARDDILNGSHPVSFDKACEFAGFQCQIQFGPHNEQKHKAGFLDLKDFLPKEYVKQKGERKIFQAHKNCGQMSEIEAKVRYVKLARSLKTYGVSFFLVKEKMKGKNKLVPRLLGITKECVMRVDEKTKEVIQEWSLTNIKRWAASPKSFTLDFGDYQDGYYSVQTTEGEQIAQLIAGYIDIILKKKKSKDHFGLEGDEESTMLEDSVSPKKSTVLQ
Sequence of talin-R4 (1654-1848) (P26039 1654-1848): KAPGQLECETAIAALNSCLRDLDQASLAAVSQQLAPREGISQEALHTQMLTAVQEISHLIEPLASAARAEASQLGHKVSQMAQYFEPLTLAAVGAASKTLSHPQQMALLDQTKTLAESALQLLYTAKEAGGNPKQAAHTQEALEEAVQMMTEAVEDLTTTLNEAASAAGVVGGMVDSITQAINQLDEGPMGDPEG

| Substance | Kd (talin-RM (1654-2344)) | further results |
| --- | --- | --- |
| WT talin-PTB (talin-F3/PTB, 306-405) (from UniProt P26039 306-405) (domain or fragment) | 0.577 µM | Kd (talin-R4 (1654-1848)): 3.6 µM; Kd (talin-R6-R8 (1984-2344)): 78 µM |
| biotinylated C6-PIP2 | – | Kd (talin-H): ~0.0892 µM |
| talin-PTB L325R (from UniProt P26039 306-405) (domain or fragment) | 0.667 µM | – |
| talin-PTB M319A (from UniProt P26039 306-405) (domain or fragment) | 80.9 µM | – |
| talin-PTB PTB (from UniProt P26039) | – | Kd [1]: 0.27 µM |
| talin-PTB Q381V (from UniProt P26039 306-405) (domain or fragment) | 314 µM | – |
| talin-PTB S365D (from UniProt P26039 306-405) (domain or fragment) | 1660 µM | – |
| talin-PTB S379R (from UniProt P26039 306-405) (domain or fragment) | 625 µM | – |
| talin-PTB W359A (from UniProt P26039 306-405) (domain or fragment) | 0.529 µM | – |
